Test results from patent US20210032351A1 (XDCEXPLORER SHANGHAI, published 2021).
Ends that are not written are not given here. * marks the point of attachment. Biotin = O=C1N[C@H]2[C@H](CS[C@H]2CCCCC(=O)*)N1

Tests used:
pep07 = biological target: T1, pep07 (cysteine pairing not given here); experiment: polypeptide dot matrix ELISA
T1 peptide: NYVVTDHGSCVRACGAK(Biotin)

pep06 = biological target: T2, pep06 (cysteine pairing not given here); experiment: polypeptide dot matrix ELISA
T2 peptide: GNYVVTDHGSCVRACGK(Biotin)

pep25 = biological target: T3, pep25 (cysteine pairing not given here); experiment: polypeptide dot matrix ELISA
T3 peptide: YEMEEDGVRKCKKCEGK(Biotin)

pep05 = biological target: T4, pep05 (cysteine pairing not given here); experiment: polypeptide dot matrix ELISA
T4 peptide: KGNYVVTDHGSCVRACK(Biotin)

pep01 = biological target: T5, pep01; experiment: polypeptide dot matrix ELISA
T5 peptide: LEEKKGNYVVTDHGSCK(Biotin)

pep11 = biological target: T6, pep11 (cysteine pairing not given here); experiment: polypeptide dot matrix ELISA
T6 peptide: TDHGSCVRACGADSYEK(Biotin)

pep09 = biological target: T7, pep09 (cysteine pairing not given here); experiment: polypeptide dot matrix ELISA
T7 peptide: VVTDHGSCVRACGADSK(Biotin)

pep12 = biological target: T8, pep12 (cysteine pairing not given here); experiment: polypeptide dot matrix ELISA
T8 peptide: DHGSCVRACGADSYEMK(Biotin)

pep19 = biological target: T9, pep19; experiment: polypeptide dot matrix ELISA
T9 peptide: ACGADSYEMEEDGVRKK(Biotin)

pep17 = biological target: T10, pep17; experiment: polypeptide dot matrix ELISA
T10 peptide: VRACGADSYEMEEDGVK(Biotin)

pep02 = biological target: T11, pep02; experiment: polypeptide dot matrix ELISA
T11 peptide: EEKKGNYVVTDHGSCVK(Biotin)

pep03 = biological target: T12, pep03; experiment: polypeptide dot matrix ELISA
T12 peptide: EKKGNYVVTDHGSCVRK(Biotin)

pep27 = biological target: T13, pep27 (cysteine pairing not given here); experiment: polypeptide dot matrix ELISA
T13 peptide: MEEDGVRKCKKCEGPCK(Biotin)

pep10 = biological target: T14, pep10 (cysteine pairing not given here); experiment: polypeptide dot matrix ELISA
T14 peptide: VTDHGSCVRACGADSYK(Biotin)

pep31 = biological target: T15, pep31 (cysteine pairing not given here); experiment: polypeptide dot matrix ELISA
T15 peptide: GVRKCKKCEGPCRKVCK(Biotin)

pep15 = biological target: T16, pep15 (cysteine pairing not given here); experiment: polypeptide dot matrix ELISA
T16 peptide: SCVRACGADSYEMEEDK(Biotin)

pep23 = biological target: T17, pep23 (cysteine pairing not given here); experiment: polypeptide dot matrix ELISA
T17 peptide: DSYEMEEDGVRKCKKCK(Biotin)

pep26 = biological target: T18, pep26 (cysteine pairing not given here); experiment: polypeptide dot matrix ELISA
T18 peptide: EMEEDGVRKCKKCEGPK(Biotin)

pep16 = biological target: T19, pep16 (cysteine pairing not given here); experiment: polypeptide dot matrix ELISA
T19 peptide: CVRACGADSYEMEEDGK(Biotin)

pep20 = biological target: T20, pep20 (cysteine pairing not given here); experiment: polypeptide dot matrix ELISA
T20 peptide: CGADSYEMEEDGVRKCK(Biotin)

pep24 = biological target: T21, pep24 (cysteine pairing not given here); experiment: polypeptide dot matrix ELISA
T21 peptide: SYEMEEDGVRKCKKCEK(Biotin)

pep22 = biological target: T22, pep22; experiment: polypeptide dot matrix ELISA
T22 peptide: ADSYEMEEDGVRKCKKK(Biotin)

pep04 = biological target: T23, pep04; experiment: polypeptide dot matrix ELISA
T23 peptide: KKGNYVVTDHGSCVRAK(Biotin)

pep28 = biological target: T24, pep28 (cysteine pairing not given here); experiment: polypeptide dot matrix ELISA
T24 peptide: EEDGVRKCKKCEGPCRK(Biotin)

pep34 = biological target: T25, pep34 (cysteine pairing not given here); experiment: polypeptide dot matrix ELISA
T25 peptide: KCKKCEGPCRKVCNGIK(Biotin)

pep14 = biological target: T26, pep14 (cysteine pairing not given here); experiment: polypeptide dot matrix ELISA
T26 peptide: GSCVRACGADSYEMEEK(Biotin)

pep30 = biological target: T27, pep30 (cysteine pairing not given here); experiment: polypeptide dot matrix ELISA
T27 peptide: DGVRKCKKCEGPCRKVK(Biotin)

pep32 = biological target: T28, pep32 (cysteine pairing not given here); experiment: polypeptide dot matrix ELISA
T28 peptide: VRKCKKCEGPCRKVCNK(Biotin)

pep29 = biological target: T29, pep29 (cysteine pairing not given here); experiment: polypeptide dot matrix ELISA
T29 peptide: EDGVRKCKKCEGPCRKK(Biotin)

[1] = biological target: T30, human EGFRvIII-hFc protein (human, UniProt P00533 25-645); experiment: ELISA, coated EGFRvIII-hFc, antibody 0.1 nM
T30 construct: extracellular domain; made in HEK293 cells, purified on protein A; also called immunogen A; hFc-tagged EGFRvIII protein; not shown: human IgG Fc fragment (hFc) of the pCpC vector
Outline: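 The antibody is applied to BSA-blocked wells pre-coated with EGFRvIII-hFc (1.0 μg/mL, overnight, 4° C) for 2 h at 37° C. Detection uses an HRP secondary (2 h, 37° C), TMB for 30 min, HCl stop and absorbance at 450 nm.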

B1: Murine anti-75G7 (antibody, V domains shown)
VH: EVQLQQSGPELVKPGASVKIPCKASGYTFTDYNMDWVKQSHGKSLEWIGDINPNNGDTIYNQKFKGKATLTVDKSSSTAYMELRSLTSEDTAVYYCARGDYDGYYPVYYAMDYWGQGTSVTVSS
VL: ENVLTQSPAIMSASPGEKVTMTCRASSSVSSSYLHWYQQKSGASPKLWIFSTSNLAAGVPARFSGSGSGTSYSLTVSSVEAEDAATYYCQQYSGYPLTFGAGTKLELK
notes: murine hybridoma antibody; also called 75G7C6
B1: no binding (pep07); no binding (pep06); no binding (pep25). B1: no binding (pep05); no binding (pep01); no binding (pep11). B1: no binding (pep09); no binding (pep12); no binding (pep19). B1: no binding (pep17); no binding (pep02); no binding (pep03). B1: no binding (pep27); no binding (pep10); no binding (pep31). B1: no binding (pep15); no binding (pep23); no binding (pep26). B1: no binding (pep16); no binding (pep20); no binding (pep24). B1: no binding (pep22); no binding (pep04); no binding (pep28). B1: no binding (pep34); no binding (pep14); no binding (pep30). The binding result (pep32) was “no binding”, the binding result (pep29) was “no binding” and the OD450 nm [1] was 0.07.
